{"source": "paper PMC11651597", "about": "“Characterization of a novel subfamily 1.4 lipase from Bacillus licheniformis IBRL-CHS2: Cloning and expression optimization” (PLOS ONE, 2024)", "substrate": "CCCCCCCCCCCC(=O)Oc1ccc([N+](=O)[O-])cc1", "experiment": "purified protein", "format": "biochemical, Bacillus licheniformis", "settings": "0.1-1 mM substrate, standard assay pH 7 phosphate buffer, 35 °C, 0.01% Triton X-100, 0.1% polyvinyl alcohol, DMSO"}
{"protein": "MLipA (mature LipA lipase of B. licheniformis IBRL-CHS2) (Bacillus licheniformis DSM 13 = ATCC 14580) (protein, signal peptide (residues 1-30) removed; E. coli BL21 (DE3); IMAC purified) ASHNPVVMVHGIGGADYNFIGIKSYLQSQGWTSSELYAINFIDKTGNNINNAPRLSEYIKRVLNQTGASKVDIVAHSMGGANTLYYIKNLDGADKVGHVVTLGGANRLVTNTAPQNDKISYTSIYSTSDYIVLNSLSKLDGANNVQISGVSHVGLLFSSKVNALIKDGLTASGK", "values": [{"measurement": "Km", "result": 360, "unit": "µM"}]}
